Biological target: Human FcγRIIIa (human) (UniProt P08637)
Test: SPR (Biacore), FcγRIIIa immobilized; 1:1 with mass transfer fit

| Substance | Ka | Kd |
| --- | --- | --- |
| G-011 (from UniProt P01854 104-210) | 1.8e+07 M⁻¹ | 5500 nM |
| mouse IgG2a (antibody) | 2.1e+08 M⁻¹ | 4.7 nM |
